The target in this assay is recombinant Nodulin 22 (PvNod22) with a 6xHis-tag at the N-terminus, lacking the ER-signal peptide (Phaseolus vulgaris L.). Briefly: ITC; dilution experiment: PvNod22 injected (10 x 2 µL) into buffer, PBS pH 7.5, 25 °C; agglomerates to smaller oligomers; apparent. Set-up: dH (of dissociation): unit not given here. A general note: Isothermal titration calorimetry measures the heat released or taken up as one component is titrated into another.

For “recombinant Nodulin 22 (PvNod22) with a 6xHis-tag at the N-terminus, lacking the ER-signal peptide (natural protein)”, the Kd was determined as 9.13 µM and the dH (of dissociation) is -49600.
